Assay results reported in patent US20100247430A1 (published 2010).

Target: Dlg1 (endogenous, mouse T cells) (mouse, UniProt Q811D0 1-905, limits assumed)
Assay: co-immunoprecipitation from activated mouse CD4+ T cell extracts, anti-Dlg1 IP, anti-Crtam immunoblot
Procedure: (A) Naïve CD4⁺ T cells from Crtam^{-/+} and Crtam^{-/-} mice were activated for the indicated times and cell extracts were immunoprecipitated with Abs against Scrib (upper panels) or Dlg1 (lower panels). Immune complexes were then analyzed by immunoblotting against Crtam. Data shown are representative of five independent experiments.
To assess the interaction of Crtam and PDZ-containing proteins, microbead purified CD4⁺ T cells were stimulated with plate-bound […] (10 μg/ml) and anti-CD28 (2 μg/ml) mAbs, whole cell extracts were immunoprecipitated using anti-Scrib antibody (K-21, Santa Cruz) and immune complexes analyzed by immunoblotting with anti-Crtam mAb (6E2, Genentech) or anti-Scrib Ab (H-300, Santa Cruz). The control experiment was performed using anti-Dlg1 Ab (H-60, Santa Cruz) for immunoprecipitation. […] Crtam-Flag was immunoprecipitated using anti-Flag M2-agarose beads (Sigma) and immune complexes were analyzed by immunoblotting with anti-GST (GE Healthcare Bio-Sciences) or anti-Crtam (6E2) mAbs.
To define the mechanism(s) by which Crtam regulates T cell morphology, we analyzed the ability of Scrib and Dlg1 to co-immunoprecipitate with Crtam in resting and activated T cells (FIG. 5A). Crtam was detected in Scrib, but not Dlg1, immunoprecipitates 14 h following TCR activation. […]

Dlg1 (endogenous, mouse T cells), sequence (Q811D0 whole entry): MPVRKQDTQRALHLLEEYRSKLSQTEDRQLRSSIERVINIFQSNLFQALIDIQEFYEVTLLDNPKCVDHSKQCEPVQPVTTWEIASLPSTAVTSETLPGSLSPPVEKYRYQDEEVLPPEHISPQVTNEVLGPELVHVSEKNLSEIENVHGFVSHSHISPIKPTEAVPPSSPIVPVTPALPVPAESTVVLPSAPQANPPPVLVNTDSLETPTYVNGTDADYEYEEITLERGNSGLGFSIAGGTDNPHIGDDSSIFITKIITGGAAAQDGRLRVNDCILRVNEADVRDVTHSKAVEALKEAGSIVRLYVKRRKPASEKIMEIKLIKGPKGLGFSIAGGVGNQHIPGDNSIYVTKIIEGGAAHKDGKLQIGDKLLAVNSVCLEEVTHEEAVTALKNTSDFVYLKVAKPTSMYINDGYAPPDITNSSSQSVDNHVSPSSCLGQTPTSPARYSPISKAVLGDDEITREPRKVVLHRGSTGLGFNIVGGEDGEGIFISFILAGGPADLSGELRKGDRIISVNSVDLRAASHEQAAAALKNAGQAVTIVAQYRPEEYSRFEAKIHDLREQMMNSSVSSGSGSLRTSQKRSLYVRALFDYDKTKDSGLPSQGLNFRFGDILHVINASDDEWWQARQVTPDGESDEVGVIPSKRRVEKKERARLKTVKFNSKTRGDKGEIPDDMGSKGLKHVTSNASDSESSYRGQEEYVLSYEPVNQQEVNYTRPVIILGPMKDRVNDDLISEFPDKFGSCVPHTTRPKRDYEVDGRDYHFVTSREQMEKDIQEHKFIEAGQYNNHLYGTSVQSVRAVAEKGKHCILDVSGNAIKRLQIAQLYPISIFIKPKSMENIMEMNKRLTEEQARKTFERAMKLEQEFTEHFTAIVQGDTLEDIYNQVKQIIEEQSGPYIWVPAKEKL

- binding result: no binding
B1: mouse Crtam (endogenous, on activated mouse T cells) (receptor)
chain: AFLKMETVTVEEGQTLTLTCVTSQTKNVSLQWLAPSGFTIFLNQHPALKSSKYQLLHHSATQLSISVSNVTLREEGVYTCLHYGSSVKTKQVRVTVLVTPFQPTVEALVLRRQNGEKSVVLKCSTERSKPPPQITWLLGEGLEIYGELHHEFEADGKICNTSSTLIARAYGKNSTVHCIIQHEGLHGRKLVAPFQFEDLVADQETTSDAPEQSSLSSQALQQPTSTVSMMENSSIPETDKEEKEHATQDPGLSTASAQHTGLARRKSGILLLTLVSFLIFILFIIVQLFIMKLRKAHVVWKKESEISEQALESYRSRSNNEETSSQENSSQAPQSKRCMNYITQLYSGAKTKKSAQHWKLGGKHSRVPESIV
notes: Endogenous protein of mouse CD4+ or CD8+ T cells; In the co-immunoprecipitations it came from whole cell extracts; In flow cytometry and the Cadm1(ECD)-Fc assay it was on the cell surface; also called class-I MHC restricted T-cell associated molecule
